Patent publication US9127038B2, “Kisspeptide-pentasaccharide conjugates” (Merck Sharp & Dohme Corp., priority 2011, dated 2015)
Counter-ions that a name gives are not always drawn. Like-named read-outs stand apart in the source and are kept apart here. Square brackets hold non-standard residues; d marks the D form. Peptide text beside a SMILES is read from it. Arg(Me) = CNC(=N)NCCC[C@H](N)C(=O)O; azaGly = NNC(=O)O

Columns and labels:
human KISS-receptor = molecular target: T1, human KISS-receptor (Homo sapiens, UniProt Q969F8); assay: NFAT-regulated luciferase reporter gene assay in CHO-k1 cells, agonist activity; type: cell-based
T1 construct: expressed in transfected cells; host or cells: CHO-k1 cells that also express mitochondrially targeted aequorin, Gα16 and an NFAT-luciferase reporter
Procedure: CHO-k1 cells were used that expressed the mitochondrially targeted aequorine and Gα16 (from Euroscreen, Brussels, Belgium), a Nuclear Factor of Activated T-cells-responsive element (NFAT) under the control of a promoter directing the expression of a firefly luciferase reporter gene (pNFAT-TALuc obtained from Clontech, Mountain View, Calif.), and the human GPR54-R Hygro(+)-hGPR54WT c4; MSD). These cells were cultured in Dulbecco's Modified Eagle Medium: Nutrient Mixture F-12 (DMEM/F12) (Invitrogen, Carlsbad, Calif.), supplemented with 10% (vol/vol) filtered bovine serum (Hyclone, Thermo Fisher Scientific, Waltham, Mass.), 100 U/ml penicillin G, 100 μg/ml streptomycin, 400 μg/ml Geneticin and 400 μg/ml Hygromycin (Invitrogen). […] Kisspeptin-10 was used as a standard. […] When the conjugates were tested in the presence of a final percentage of 20% human serum, 10 μl assay medium containing 60% human serum (Sigma-Aldrich, #H4522) was added to the wells. In the absence of human serum, 10 μl of assay medium was added. Cells were harvested and diluted to a concentration of 7.5E5 cells/ml in assay medium without 0.1% BSA. 10 μl of cell solution was added to the compound wells. After incubation for 4 hours in a humidified atmosphere at 5% CO2 and 37° C., the plate was left at room temperature for 30 minutes. Subsequently, 15 μl of Steadylite™ solution (PerkinElmer, Boston, Mass.) was added and the cells, protected from light, were allowed to lyse for 30 min at room temperature. Luminescence, indicated as relative luminescence units (RLU), was measured on an Envision Multilabel reader (PerkinElmer).

in vivo = assay: in vivo
Procedure: The pharmacokinetics of conjugate C8 were determined after administration of 40 nmol/kg IV in male and of 200 nmol/kg SC in female Sprague-Dawley rats.

[1] = In vitro stability in human serum (LC/MS/MS); details: for half-life at 750 nM: human
[2] = cited from earlier work
[3] = after clomiphene citrate treatment; cited from earlier work
[4] = female, Sprague-Dawley, rat, plasma, sc, 0.2 umol/kg
[5] = female, Sprague-Dawley, rat, plasma, sc, 200 nmol/kg
[6] = female, Sprague-Dawley, rat, plasma, sc, 0.6 umol/kg
[7] = male, Sprague-Dawley, rat, plasma, iv, 40 nmol/kg
[8] = absence of human serum, read-out: pEC50 (converted)
[9] = presence of 20% human serum, read-out: pEC50 serum (converted)

T1 sequence (Q969F8 whole entry): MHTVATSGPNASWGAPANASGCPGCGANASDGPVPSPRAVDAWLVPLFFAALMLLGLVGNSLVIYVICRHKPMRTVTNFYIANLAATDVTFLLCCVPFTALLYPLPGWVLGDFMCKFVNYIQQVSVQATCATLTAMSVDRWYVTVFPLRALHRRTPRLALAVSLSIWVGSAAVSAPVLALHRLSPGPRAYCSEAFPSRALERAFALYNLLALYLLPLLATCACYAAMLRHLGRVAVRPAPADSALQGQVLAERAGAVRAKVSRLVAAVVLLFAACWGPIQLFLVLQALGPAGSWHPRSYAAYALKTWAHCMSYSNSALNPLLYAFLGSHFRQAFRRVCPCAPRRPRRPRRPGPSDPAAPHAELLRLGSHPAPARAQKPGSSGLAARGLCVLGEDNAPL

## CNC(=N)NCCC[C@H](NC(=O)[C@H](CC(C)C)NC(=O)NNC(=O)[C@H](Cc1ccccc1)NC(=O)[C@@H](NC(=O)[C@H](CC(N)=O)NC(=O)[C@H](Cc1c[nH]c2ccccc12)NC(=O)[C@H](CC(N)=O)NC(=O)[C@@H](Cc1ccc(O)cc1)NC(=O)CCCCn1cc(CCC(=O)NCCOCCOCCOCCO[C@H]2[C@H](OC)[C@@H](OC)[C@@H](O[C@H]3[C@H](OC)[C@@H](OC)[C@H](O[C@H]4[C@H](OS(=O)(=O)O)[C@@H](OS(=O)(=O)O)[C@@H](O[C@H]5[C@H](OC)[C@@H](OC)[C@H](O[C@H]6[C@H](OS(=O)(=O)O)[C@@H](OS(=O)(=O)O)[C@@H](OC)O[C@@H]6COS(=O)(=O)O)O[C@H]5C(=O)O)O[C@@H]4COS(=O)(=O)O)O[C@@H]3C(=O)O)O[C@@H]2COS(=O)(=O)O)nn1)C(C)O)C(=O)N[C@@H](Cc1ccccc1)C(N)=O (some centres unmarked) [Conjugate C8]
Human KISS-receptor; pEC50, absence of human serum
  EC50: 0.158 nM
Human KISS-receptor; pEC50 serum, presence of 20% human serum
  EC50: 7.24 nM
In vivo; 40 nmol/kg IV, male rats
  AUCN(0-∞) IV: 60.4 nM·kg·h/µg
In vivo; 200 nmol/kg SC, female rats
  AUCN(0-∞) SC: 56.5 nM·kg·h/µg
  F: 94%
In vivo; [4]
  AUC(0-inf): 38.7 µM·h
  Cmax: 2310 nM
  level at time molar at 24 h: 490 nM
In vivo; female, Sprague-Dawley, rat, plasma, sc, 0.2 umol/kg, Tmax, SC 0.2 μmol/kg, female rats
  Tmax: 2.7 h
In vivo; [5]
  Cmax: 2310 nM
  bioavailability: 93.5%
In vivo; female, Sprague-Dawley, rat, plasma, sc, 200 nmol/kg, Tmax, 200 nmol/kg SC, female rats
  Tmax: 2.7 h
In vivo; female, Sprague-Dawley, rat, plasma, sc, 200 nmol/kg, tmax, following subcutaneous administration
  Tmax: 2.7 to 3.3 h
In vivo; [6]
  AUC(0-inf): 90.5 µM·h
  Cmax: 5180 nM
  level at time molar at 24 h: 1100 nM
In vivo; female, Sprague-Dawley, rat, plasma, sc, 0.6 umol/kg, Tmax, SC 0.6 μmol/kg, female rats
  Tmax: 1.7 h
In vivo; [7]
  Vd: 0.067 L/kg
  clearance: 4.8 mL/h/kg
  half-life: 11.5 h
[1]
  half-life at 750 nM: > 240 h

## CNC(=N)NCCC[C@H](NC(=O)[C@H](CC(C)C)NC(=O)NNC(=O)[C@H](Cc1ccccc1)NC(=O)[C@@H](NC(=O)[C@H](CC(N)=O)NC(=O)[C@@H]1C[C@@H](O)CN1C(=O)[C@@H](Cc1ccc(O)cc1)NC(=O)CCOCCOCCOCCOCCn1cc(CCC(=O)NCCOCCOCCOCCO[C@H]2[C@H](OC)[C@@H](OC)[C@@H](O[C@H]3[C@H](OC)[C@@H](OC)[C@H](O[C@H]4[C@H](OS(=O)(=O)O)[C@@H](OS(=O)(=O)O)[C@@H](O[C@H]5[C@H](OC)[C@@H](OC)[C@H](O[C@H]6[C@H](OC)[C@@H](OS(=O)(=O)O)[C@@H](OC)O[C@@H]6COS(=O)(=O)O)O[C@H]5C(=O)O)O[C@@H]4COS(=O)(=O)O)O[C@@H]3C(=O)O)O[C@@H]2COS(=O)(=O)O)nn1)[C@@H](C)O)C(=O)N[C@@H](Cc1c[nH]c2ccccc12)C(N)=O [Conjugate C34]
Human KISS-receptor; [8]
  EC50: 0.0407 nM
Human KISS-receptor; [9]
  EC50: 0.141 nM
[1]
  half-life at 750 nM: 138 h

## CNC(=N)NCCC[C@H](NC(=O)[C@H](CC(C)C)NC(=O)NNC(=O)[C@H](Cc1ccccc1)NC(=O)[C@@H](NC(=O)[C@H](CC(N)=O)NC(=O)[C@@H]1C[C@@H](O)CN1C(=O)[C@@H](Cc1ccc(O)cc1)NC(=O)CCOCCOCCOCCOCCn1cc(CCC(=O)NCCOCCOCCOCCO[C@H]2[C@H](OC)[C@@H](OC)[C@@H](O[C@H]3[C@H](OC)[C@@H](OC)[C@H](O[C@H]4[C@H](OS(=O)(=O)O)[C@@H](OS(=O)(=O)O)[C@@H](O[C@H]5[C@H](OC)[C@@H](OC)[C@H](O[C@H]6[C@H](OS(=O)(=O)O)[C@@H](OS(=O)(=O)O)[C@@H](OC)O[C@@H]6COS(=O)(=O)O)O[C@H]5C(=O)O)O[C@@H]4COS(=O)(=O)O)O[C@@H]3C(=O)O)O[C@@H]2COS(=O)(=O)O)nn1)[C@@H](C)O)C(=O)N[C@@H](Cc1c[nH]c2ccccc12)C(N)=O [Conjugate C35]
Human KISS-receptor; [8]
  EC50: 0.0427 nM
Human KISS-receptor; [9]
  EC50: 1.38 nM
[1]
  half-life at 750 nM: > 240 h

## CO[C@H]1O[C@H](COS(=O)(=O)O)[C@@H](O[C@@H]2O[C@@H](C(=O)O)[C@@H](O[C@H]3O[C@H](COS(=O)(=O)O)[C@@H](O[C@@H]4O[C@H](C(=O)O)[C@@H](O[C@H]5O[C@H](COS(=O)(=O)O)[C@@H](OCCOCCOCCOCCNC(=O)CCc6cn(CCCCC(=O)N[C@@H](Cc7ccc(O)cc7)C(=O)N[C@@H](CC(N)=O)C(=O)N[C@@H](Cc7c[nH]c8ccccc78)C(=O)N[C@@H](CC(N)=O)C(=O)N[C@@H](CO)C(=O)N[C@@H](Cc7ccccc7)C(=O)NCC(=O)N[C@@H](CC(C)C)C(=O)N[C@@H](CCCNC(=N)N)C(=O)N[C@@H](Cc7ccccc7)C(N)=O)nn6)[C@H](OC)[C@H]5OC)[C@H](OC)[C@H]4OC)[C@H](OS(=O)(=O)O)[C@H]3OS(=O)(=O)O)[C@H](OC)[C@H]2OC)[C@H](OS(=O)(=O)O)[C@H]1OS(=O)(=O)O [Conjugate C42, reference compound]
Human KISS-receptor; [8]
  EC50: 1.58 nM
Human KISS-receptor; in words
  potency (in words): not sufficiently potent
Human KISS-receptor; [9]
  EC50: 31.6 nM
[1]
  half-life at 750 nM: 121 h

## CNC(=N)NCCC[C@H](NC(=O)[C@H](CC(C)C)NC(=O)NNC(=O)[C@H](Cc1ccccc1)NC(=O)[C@@H](NC(=O)[C@H](CC(N)=O)NC(=O)[C@H](Cc1c[nH]c2ccccc12)NC(=O)[C@H](CC(N)=O)NC(=O)[C@H](N)Cc1ccc(O)cc1)[C@@H](C)O)C(=O)N[C@@H](Cc1ccccc1)C(N)=O [Conjugate P29, reference compound] (H-[dY]NWNTF[azaGly]L[Arg(Me)]F-NH2)
Human KISS-receptor; [8]
  EC50: 0.1 nM
Human KISS-receptor; [9]
  EC50: 0.0501 nM
[1]
  half-life at 750 nM: 5.4 h
  stability (in words): not sufficiently stable

## CC(C)C[C@H](NC(=O)CNC(=O)[C@H](Cc1ccccc1)NC(=O)[C@H](CO)NC(=O)[C@H](CC(N)=O)NC(=O)[C@H](Cc1c[nH]c2ccccc12)NC(=O)[C@H](CC(N)=O)NC(=O)[C@@H](N)Cc1ccc(O)cc1)C(=O)N[C@@H](CCCNC(=N)N)C(=O)N[C@@H](Cc1ccccc1)C(N)=O [Kiss-10, reference compound]
Human KISS-receptor; [8]
  EC50: 1 nM
Human KISS-receptor; [9]
  EC50: 1 nM
[1]
  stability (in words): not sufficiently stable
[2]
  half-life in human plasma: ~0.167 h

## CCN(CC)CCOc1ccc(C(=C(Cl)c2ccccc2)c2ccccc2)cc1 [clomiphene citrate]
[3]
  ovulation rates: 60%-90%
  pregnancy rates: 20%-40%
